Measured values as given in patent US20200262917A1 (Daiichi Sankyo, published 2020).
Changes are numbered by the printed parent chain.

T1: FLAG-D4: domain 4 and onwards (353-525) of human LAG-3 with N-terminal FLAG tag, on cells (human, UniProt P18627 353-525)
T1 construct: Expressed on HEK293T cells from pcDNA3.1; any leader before the FLAG tag is not described; also called construct containing only domain 4
T1 sequence: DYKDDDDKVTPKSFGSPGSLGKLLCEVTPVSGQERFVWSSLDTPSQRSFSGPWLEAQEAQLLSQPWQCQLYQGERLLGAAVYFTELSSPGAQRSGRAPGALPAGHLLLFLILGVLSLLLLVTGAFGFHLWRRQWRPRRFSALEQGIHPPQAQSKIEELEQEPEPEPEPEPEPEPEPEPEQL

T2: LAG-3_D3D4-His: 3rd and 4th extracellular immunoglobulin-like domains (263-450) of human LAG-3 with … (UniProt P18627 263-450)
T2 chain: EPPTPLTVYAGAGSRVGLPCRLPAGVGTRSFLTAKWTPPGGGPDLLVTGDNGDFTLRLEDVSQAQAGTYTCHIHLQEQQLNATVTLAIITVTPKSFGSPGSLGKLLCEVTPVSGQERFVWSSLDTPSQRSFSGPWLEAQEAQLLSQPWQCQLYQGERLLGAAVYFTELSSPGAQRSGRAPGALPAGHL

T3: human LAG-3 (full length, expressed on cells) (human, UniProt P18627 23-525)
T3 construct: also called CD223; hLAG-3
T3 sequence: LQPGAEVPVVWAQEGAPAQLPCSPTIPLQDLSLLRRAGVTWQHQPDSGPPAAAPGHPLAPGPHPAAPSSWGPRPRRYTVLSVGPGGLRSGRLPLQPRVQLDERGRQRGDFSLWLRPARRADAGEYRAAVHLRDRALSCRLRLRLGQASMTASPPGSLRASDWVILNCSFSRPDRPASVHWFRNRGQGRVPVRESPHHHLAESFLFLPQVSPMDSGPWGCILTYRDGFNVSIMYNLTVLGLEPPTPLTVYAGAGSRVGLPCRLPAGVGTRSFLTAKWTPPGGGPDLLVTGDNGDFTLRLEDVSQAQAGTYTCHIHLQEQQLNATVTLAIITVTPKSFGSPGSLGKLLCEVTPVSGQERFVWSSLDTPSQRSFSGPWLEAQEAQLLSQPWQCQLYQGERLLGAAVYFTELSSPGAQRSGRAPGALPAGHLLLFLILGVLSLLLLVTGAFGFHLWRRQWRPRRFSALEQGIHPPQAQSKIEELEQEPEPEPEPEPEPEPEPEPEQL

T4: FLAG-D3D4: domain 3 and onwards (263-525) of human LAG-3 with N-terminal FLAG tag, on cells (human, UniProt P18627 263-525)
T4 construct: Expressed on HEK293T cells from pcDNA3.1; any leader before the FLAG tag is not described; also called construct containing domains 3 and 4
T4 sequence: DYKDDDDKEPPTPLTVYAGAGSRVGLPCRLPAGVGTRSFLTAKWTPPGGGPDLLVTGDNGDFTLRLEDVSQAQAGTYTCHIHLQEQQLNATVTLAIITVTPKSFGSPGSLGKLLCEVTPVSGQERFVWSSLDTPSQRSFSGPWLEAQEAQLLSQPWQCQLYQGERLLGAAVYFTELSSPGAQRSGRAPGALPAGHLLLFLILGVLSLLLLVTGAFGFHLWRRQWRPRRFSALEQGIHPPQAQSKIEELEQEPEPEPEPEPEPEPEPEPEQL

B1: rat anti-human LAG-3 monoclonal antibody rLA225 (antibody, V domains shown)
VH: EVQLVESGGGLVQPGRSMKLSCVASGFTFSNYYMAWVRQAPTKGLEWVASISTGGGNTYYRDSVKGRFTISRDNAKSTLYLQMDSLRSEDTATYYCARPPYGYNYGWFTYWGQGTLVTVSS
VL: DIQMTQSPASLSASLGETVTIECRASEDIHNGLVWYQQKPGKSPQLLIYNANSMHTGVPSRFSGSGSGTQYSLKINSLQSEDVASYFCQQYYNYPRTFGGGTKLELKR
notes: Rat monoclonal antibody purified from hybridoma supernatant; the rat constant regions are not
B2: rat anti-human LAG-3 monoclonal antibody rLA204 (antibody, V domains shown)
VH: EVELVESGGGLVQPGRSMKLSCAASGFTFRTYGMAWVRQAPTKGLEWVASISTGGGSTYYRDSVKGRFTISRDNAKSTLYLQMDSLRSEDTATYYCTTDLINYPGIGGFAFWGQGTLVTVSS
VL: NIVMTQSPKSMSISVGDRVTMNCKASQNVYNNIAWYQQKPGKSPKLLIYYASNRYTGVPDRFTGSGSGTDFTLTIHSVQAEDAAFYYCQRLYNSPPTFGGGTKLELKR
notes: the rat constant regions are not
B3: rat anti-human LAG-3 monoclonal antibody rLA212 (antibody, V domains shown)
VH: EVQLVESGGGLVQPGRSLKLSCAASGFTYRSYVMAWVRQAPTRGLEWVASISTGGGNTYYRDSVKGRFTISRDNAKNTLYLQMDSLRSEDTATYYCAEDMSNSGYGLFDYWGQGVMVTVSS
VL: NIVMTQSPKSMSISVGDRVTMNCKAGQNVDNNIAWYQKKPGQSPKLLIYYASNRNTGVPDRFTGGGYGTDFTLTINSVQAEDAAFYYCQRISNSPYTFGAGTELELKR
notes: as for B1
B4: humanized anti-human LAG-3 antibody hLA212_H3/L2 (antibody, human IgG1, kappa, V domains shown)
VH: B3 VH with R16G, K19R, T42G, R43K, S88A, T93V, V115T, M116L
VL: DIQMTQSPSSLSASVGDRVTITCKAGQNVDNNIAWYQQKPGQSPKLLIYYASNRNTGVPSRFSGSGYGTDFTLTISSLQPEDFATYYCQRISNSPYTFGQGTKVEIKR
notes: Human IgG1/kappa; not in a low fucose form; also called humanized hLA212_H3/L2
B5: humanized anti-human LAG-3 antibody hLA212_H2/L5 (antibody, human IgG1, kappa, V domains shown)
VH: B3 VH with R16G, K19R, T42G, R43K, A49G, D84N, S88A, T93V, V115T, M116L
VL: B3 VL with V3Q, K9S, N22T, T63S, N76S, A80P, A100Q, E103K
notes: Human IgG1/kappa; also called humanized hLA212_H2/L5
B6: humanized anti-human LAG-3 antibody hLA212_H2/L2 (antibody, human IgG1, kappa, V domains shown)
VH: B3 VH with R16G, K19R, T42G, R43K, A49G, D84N, S88A, T93V, V115T, M116L
VL: B4 VL
notes: Human IgG1/kappa; also called humanized hLA212_H2/L2
B7: humanized anti-human LAG-3 antibody hLA212_H2/L1 (antibody, human IgG1, kappa, V domains shown)
VH: B3 VH with R16G, K19R, T42G, R43K, A49G, D84N, S88A, T93V, V115T, M116L
VL: B4 VL with S43A, Y67S
notes: Human IgG1/kappa; also called humanized hLA212_H2/L1
B8: humanized anti-human LAG-3 antibody hLA212_H2/L3 (antibody, human IgG1, kappa, V domains shown)
VH: B3 VH with R16G, K19R, T42G, R43K, A49G, D84N, S88A, T93V, V115T, M116L
VL: B4 VL with D1N, Q38K, S60D, S65G, T85F
notes: Human IgG1/kappa; also called humanized hLA212_H2/L3
B9: humanized anti-human LAG-3 antibody hLA212_H3/L3 (antibody, human IgG1, kappa, V domains shown)
VH: B3 VH with R16G, K19R, T42G, R43K, S88A, T93V, V115T, M116L
VL: B4 VL with D1N, Q38K, S60D, S65G, T85F
notes: Human IgG1/kappa; also called humanized hLA212_H3/L3
B10: humanized anti-human LAG-3 antibody hLA212_H3/L4 (antibody, human IgG1, kappa, V domains shown)
VH: B3 VH with R16G, K19R, T42G, R43K, S88A, T93V, V115T, M116L
VL: B4 VL with L11M, A13I, I21M, Q38K, Y67S, L78V, V104L, I106L
notes: Human IgG1/kappa; also called humanized hLA212_H3/L4
B11: humanized anti-human LAG-3 antibody hLA212_H3/L5 (antibody, human IgG1, kappa, V domains shown)
VH: B3 VH with R16G, K19R, T42G, R43K, S88A, T93V, V115T, M116L
VL: B3 VL with V3Q, K9S, N22T, T63S, N76S, A80P, A100Q, E103K
notes: Human IgG1/kappa; also called humanized hLA212_H3/L5
B12: humanized anti-human LAG-3 antibody hLA212_H3/L1 (antibody, human IgG1, kappa, V domains shown)
VH: B3 VH with R16G, K19R, T42G, R43K, S88A, T93V, V115T, M116L
VL: B4 VL with S43A, Y67S
notes: Human IgG1/kappa; also called humanized hLA212_H3/L1
B13: humanized anti-human LAG-3 antibody hLA212_H2/L4 (antibody, human IgG1, kappa, V domains shown)
VH: B3 VH with R16G, K19R, T42G, R43K, A49G, D84N, S88A, T93V, V115T, M116L
VL: B4 VL with L11M, A13I, I21M, Q38K, Y67S, L78V, V104L, I106L
notes: Human IgG1/kappa; also called humanized hLA212_H2/L4
B14: human chimeric anti-LAG-3 antibody cLA212 (antibody, human IgG1, V domains shown)
VH: B3 VH
VL: B3 VL
notes: Human IgG1/kappa chimera; The C-terminal ends 470 and 234 are inferred from the humanized chains, which differ from cLA212 by substitutions only; also called rLA212 human chimeric antibody
B15: rat anti-human LAG-3 monoclonal antibody rLA869 (antibody, V domains shown)
VH: EVQLVESGGGLVQPGRSLKLSCAASGFTYRTYVMAWVRQGPTQGLEWVASISTGGVSTYYRDSVKGRFTISRDNAKNTLYLQMDSLRSEDTATYYCAKDMLNGYNSQGLFDYWGQGVMVTVSS
VL: NIVMTQSPKSMSISVGDRVTMNCRASQNVDNTIAWYQQKPGQSPKLLIYFASDRYTGVPDRFTGGGYGTDFTLTINSVQAEDAAFYYCQRIYNSPLTFGSGTKLEIRR
notes: Rat monoclonal antibody
B16: rat anti-human LAG-3 monoclonal antibody rLA1264 (antibody, V domains shown)
VH: EVQLVESGGGLVQPGRSLKLSCAASGFTFSSYYMAWVRQAPTKGLEWVAYISNGGYSTYYRDSVKGRFTISRENAKSTLYLQMDSLRSEDTATYYCTITDHSGYRFTYWGQGTLVTVSS
VL: DIQMTQSPSLLSASVGDRVTLSCKASQSIYNSLAWYQQKLGEAPKLLIYDANSLQTGIPSRFSGSGSGTDFTLTISSLQPEDVATYFCQKYYSGNTFGAGTKLELKR
notes: Rat monoclonal antibody

What follows are binders tested against T1, FLAG-D4: domain 4 and onwards (353-525) … (assay: flow cytometry on transfected HEK293T cells).
Procedure: (§1) It was further confirmed by flow cytometry that the antibody produced by the hybridomas determined to be positive by the Cell-ELISA in Example 1)-3 binds to PHA (phytohemagglutinin) activated human T cells (PHA blasts), a more physiologically relevant cell type expressing LAG-3. To human PBMCs stimulated with 2 μg/mL of PHA (manufactured by Sigma-Aldrich) for three days, was added a hybridoma culture supernatant for suspension, followed by reaction at 4° C. for 30 minutes. After washing with a FACS buffer (PBS, 0.1% BSA, and 0.1% sodium azide), a secondary antibody such as an Anti-Rat IgG PE conjugate (manufactured by Jackson ImmunoResearch Laboratories, Inc.) diluted 200-fold with a FACS buffer comprising a LIVE/DEAD Fixable Dead Cell Stain Kit-near-IR fluorescent reactive dye (manufactured by Invitrogen Corp.) was added thereto for suspension, followed by standing at 4° C. for 30 minutes. After washing with a FACS buffer, the cells were resuspended in PBS containing 1 to 2% paraformaldehyde, followed by detection using a flow cytometer (Cantoll: manufactured by Becton, Dickinson and Company or FC500: manufactured by Beckman Coulter Inc.). The data was analyzed using FlowJo (manufactured by Tree Star Inc). After removal of the LIVE/DEAD Fixable Dead Cell Stain Kit-near-IR fluorescent reactive dye-positive dead cells by gating, a histogram of the fluorescence intensity of the living cells was plotted.
(§2) Each expression plasmid (cloned into pcDNA3.1) of either domain 3 and onwards (263-525) or domain 4 and onwards (353-525) of human LAG-3 with a FLAG tag sequence ([…]) added to the N terminus was introduced into HEK293T cells using Lipofectamine 2000 (manufactured by Life Technologies Corp.), and the cells were cultured for 1 day and then recovered, to investigate the binding activity of the antibodies by flow cytometry according to the method described in Example 1)-4. […]

Binder | binding result
B1 | no binding (tested: 10 µg/mL)
B2 | no binding (tested: 10 µg/mL)
B3 | no binding (tested: 10 µg/mL)

Molecular target: T2, LAG-3_D3D4-His: 3rd and 4th …
Assay: SPR (Biacore T200)

Binder | Kd [pM]
B4 | 62
B5 | 120
B6 | 120
B7 | 110
B8 | 150
B9 | 100
B10 | 76
B11 | 100
B12 | 92
B13 | 96

These binders were tested against T3, human LAG-3 (full length, expressed on …) (assay: flow cytometry on 293T-lacZ cells expressing human LAG-3).

Binder | binding result
B4 | binds
B5 | binds
B14 | binds
B6 | binds
B7 | binds
B8 | binds
B9 | binds
B10 | binds
B11 | binds
B12 | binds
B13 | binds

Each binder was assayed against T4, FLAG-D3D4: domain 3 and onwards … (assay: flow cytometry on transfected HEK293T cells, antibody at 10 µg/mL).
Procedure: as §1, §2

Binder | binding result
B1 | binds
B2 | binds
B3 | binds

What follows are binders tested against T4, FLAG-D3D4: domain 3 and onwards … (assay: same type of flow cytometry experiment using hybridoma culture supernatant).

Binder | binding result
B15 | binds
B16 | binds

What follows are binders tested against T3, human LAG-3 (full length, expressed on …) (assay: flow cytometry on PHA-activated human T cells (PHA blasts) expressing LAG-3).

Binder | binding result
B1 | binds
B2 | binds
B15 | binds
B3 | binds
B16 | binds
